Paper doi:10.1101/373860 (bioRxiv, 2018)

Target: the molecule itself
Assay: cryo-EM structure

B1: Arabidopsis thaliana two-pore channel 1 with D240N, D454N, E528Q (AtTPC1DDE), deletion of residues 2-11 (natural protein, UniProt Q94KI8 1-733, looked up)
chain: MGGGGTDRVRRSEAITHGTPFQKAAALVDLAEDGIGLPVEILDQSSFGESARYYFIFTRLDLIWSLNYFALLFLNFFEQPLWCEKNPKPSCKDRDYYYLGELPYLTNAESIIYEVITLAILLVHTFFPISYEGSRIFWTSRLNLVKVACVVILFVDVLVDFLYLSPLAFDFLPFRIAPYVRVIIFILSIRELRDTLVLLSGMLGTYLNILALWMLFLLFASWIAFVMFENTQQGLTVFTSYGATLYQMFILFTTSNNPDVWIPAYKSSRWSSVFFVLYVLIGVYFVTNLILAVVYDSFKEQLAKQVSGMDQMKRRMLEKAFGLIDSDKNGEIDKNQCIKLFEQLTNYRTLPKISKEEFGLIFDELDDTRDFKINKDEFADLCQAIALRFQKEEVPSLFEHFPQIYHSALSQQLRAFVRSPNFGYAISFILIINFIAVVVETTLNIEESSAQKPWQVAEFVFGWIYVLEMALKIYTYGFENYWREGANRFDFLVTWVIVIGETATFITPDENTFFSNGQWIRYLLLARMLRLIRLLMNVQRYRAFIATFITLIPSLMPYLGTIFCVLCIYCSIGVQVFGGLVNAGNKKLFETELAEDDYLLFNFNDYPNGMVTLFNLLVMGNWQVWMESYKDLTGTWWSITYFVSFYVITILLLLNLVVAFVLEAFFTELDLEEEEKCQGQDSQEKRNRRRSAGSKSRSQRVDTLLHHMLGDELSKPECSTSDT
Question: For B1, which “stoichiometry N” value is on record?
Answer: 2
